From patent US20200199207A1 (MABYLON, published 2020)
Changes are numbered by the printed parent chain.

T1: Ara h 2 (peanut, UniProt Q6PSU2 22-172)
T1 construct: also called full length Ara h 2
T1 sequence (looked up): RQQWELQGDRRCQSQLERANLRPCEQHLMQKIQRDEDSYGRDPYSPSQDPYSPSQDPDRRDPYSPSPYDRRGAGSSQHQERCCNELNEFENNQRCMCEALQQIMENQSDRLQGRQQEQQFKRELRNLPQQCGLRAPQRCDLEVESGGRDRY

T2: nAra h 1 (peanut, UniProt P43238 85-626)
T2 construct: Bought natural allergen; also called naturally extracted Ara h 1
T2 sequence (looked up): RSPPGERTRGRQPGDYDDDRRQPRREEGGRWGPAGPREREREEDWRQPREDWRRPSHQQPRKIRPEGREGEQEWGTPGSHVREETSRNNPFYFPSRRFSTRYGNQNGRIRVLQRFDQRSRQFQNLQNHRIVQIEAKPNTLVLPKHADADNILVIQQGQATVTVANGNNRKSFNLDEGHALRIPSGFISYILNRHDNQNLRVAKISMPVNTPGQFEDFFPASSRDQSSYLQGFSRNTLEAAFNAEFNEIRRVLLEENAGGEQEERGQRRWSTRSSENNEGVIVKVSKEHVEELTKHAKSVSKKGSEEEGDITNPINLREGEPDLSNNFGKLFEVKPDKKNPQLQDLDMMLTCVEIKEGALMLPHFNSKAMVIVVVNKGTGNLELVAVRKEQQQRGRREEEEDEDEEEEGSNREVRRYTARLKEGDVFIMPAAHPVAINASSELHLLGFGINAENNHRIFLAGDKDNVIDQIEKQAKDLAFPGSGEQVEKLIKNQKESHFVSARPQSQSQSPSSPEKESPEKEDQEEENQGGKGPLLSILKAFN

T3: nAra h 6 (peanut, UniProt Q647G9 22-145)
T3 construct: Bought natural allergen; also called naturally extracted Ara h 6
T3 sequence (looked up): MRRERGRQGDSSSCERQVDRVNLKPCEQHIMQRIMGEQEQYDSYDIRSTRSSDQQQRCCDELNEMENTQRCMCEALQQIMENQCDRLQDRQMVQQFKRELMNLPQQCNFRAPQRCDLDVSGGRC

T4: nBet v 1 (UniProt P15494 2-160)
T4 sequence (looked up): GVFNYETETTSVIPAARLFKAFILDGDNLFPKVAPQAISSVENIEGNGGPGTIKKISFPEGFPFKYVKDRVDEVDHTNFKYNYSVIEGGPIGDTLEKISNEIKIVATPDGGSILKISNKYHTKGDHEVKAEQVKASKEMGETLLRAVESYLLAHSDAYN

T5: nAra h 2 (peanut, UniProt Q6PSU2 22-172)
T5 construct: Bought natural allergen; also called naturally extracted Ara h 2
T5 sequence (looked up): T1 sequence (looked up)

B1: h4B2 (antibody, V domains shown)
VH: QVQLQEAGPRLVKPSQTLSVTCTVSGASITIGGYYWSWIRQHPGKGLEWMGYIYSNGRTYYNPSLKSRIAMSIDTSKNQFSLKLTSVTAADTAIYFCAREAWETPLWGQGTLITVSS
VL: DIQMTQSPSSLSASVGDRVTITCQANQDIVNSLNWFQHKPGTAPKVLIYDASKLETGVPSRFSGSGSGTHFTFTISGLQPEDFATYFCQQYENLPHTFGQGTKLEIR
notes: Recombinant human IgG; also called hMAb 4B2
B2: h12G10 (antibody, human IgG1, V domains shown)
VH: EVQLLESGGRLLRPGGSLSLSCVASGFYFGDFGMSWVRQVPGKGLEWVSGIDWSGRSTGYVDSMKGRLTISRDNDKSSLYLQMNDLRGEDTAVYYCARVGRLCSGDSCDSMGAFDLWGQGTMVTVSS
VL: DIQLTQSPSTLSASIGDSVTITCRASQNIDNWLAWYQQKPGKAPRLLIYKASSLGSGVSSKFRGSGFGTEFTLTITSLQPDDFATYYCQKSNGYSRTFGQGTKVDIK
notes: Recombinant human IgG; also called hMAb 12G10
B3: h37D5 (antibody, V domains shown)
VH: EEQLVESGGRLLRPGESLSLSCAAVGFNFGDFGMAWVRQPPGKGLEWVAGINWSGHSTGFVDSMKGRLTISRDSAKSSLFLQMNSLRGEDTAVYYCARVGRLCSGDICDSMGAFDLWGQGTMVTVSS
VL: B2 VL with L4M, S18R, N28T, K39R, R45K, K50Q, G55Q, K61R, F67S, D105E
notes: Recombinant human IgG; also called hMAb 37D5
B4: h32B10 (antibody, V domains shown)
VH: QVQLVQSGAEVKKPGASVKVSCRASGYIFRNFDINWVRQATGQGLEWMGWMSPKSGDTGYAQKFQGRVTMTRDTSINTAYMELSSLTSEDSAVYYCARGVDGTNWGQGTRVTVSS
VL: DIVMTQSPDSLGVSLGERATISCKSSQSILDNSNNKNFIAWFQQKPGQPPKLLIYWASARESGVPDRFSGSGSGTEFTLTINSLQAEDVAVYYCYQYYSTPHTFGQGTKLDLR
notes: Recombinant human IgG; also called hMAb 32B10
B5: h2F8 (antibody, V domains shown)
VH: EVQLVESGGGLVKPGGSLRLSCAASGFIFSDYNMNWVRQAPGKGLEWVSSITRSSRTIYYADSVKGRFTISRDNAKNSLHLQMNSLRDADTAVYYCAREDFDVSTGPYYMDVWGNGTTVIVSS
VL: EIVLTQSPGTLSLSPGERATLSCRASQSVSNMFLVWYQQKPGQAPRLLMYGASTRATDIPDRFSGSGSGTDFTLTISRLEPEDFAVYYCQQNGNSPYTFGQGTKLEIK
notes: Recombinant human IgG; also called hMAb 2F8
B6: h7G6 (antibody, V domains shown)
VH: QVQLVESGGGVVQPGRSLRLSCAASGIAFNDYTMHWVRRSPDKGLEWVAAISYGGTNKYYADSVKGRFTISRDSSKNTLFLQMDSLRVEDTAVYYCARDSGYRSLLHWGQGTLVTVSS
VL: EIVLTQSPLSLPVTPGEPASISCRSSQSLVHRNGYNYLDWYLQKPGQSPQLLIYMASKRASGVPDRFSGSGSGTEFTLKISRVEAEDVGIYYCMQALQTWTFGQGTKVEVN
notes: Recombinant human IgG; also called hMAb 7G6

Target: T1, Ara h 2
Assay: competition ELISA on coated Ara h 2; competitor: Patient A serum IgE
Method: (§1) Microplates were coated with […] of Ara h 1, Ara h 2, Ara h 3, or Ara h 6, overnight at 4° C. After washing with PBS-Tween 0.05% and blocking with 2% BSA, plates were incubated with increasing concentrations of peanut human IgG antibodies for 1 h at room temperature. Subsequently, plates were incubated with different sera dilutions or different concentrations of murine antibody (as positive control). IgE levels were detected using anti-human HRP-conjugated Fc-epsilon-specific secondary antibody (Abcam, Cambridge, UK) followed by addition of TMB solution (TMB, Sigma, Buchs, Switzerland). Binding of murine antibodies was detected using goat anti-mouse IgG (H+L)-HRP (Jackson ImmunoResearch, West Grove, Pa., USA).

| % inhibition of IgE binding | Binder |
| --- | --- |
| 39.7% | B1 |
| 13.8% | B2 |
| 27.8% | B3 |
| 27.8% | B4 |

Target: T1, Ara h 2
Assay: competition ELISA on coated Ara h 2; competitor: Patient B serum IgE
Method: as §1

| % inhibition of IgE binding | Binder |
| --- | --- |
| 30.6% | B1 |
| 31.2% | B2 |
| 29.6% | B3 |
| 26.7% | B4 |

Target: T1, Ara h 2
Assay: competition ELISA on coated Ara h 2; competitor: Patient E serum IgE
Method: as §1

| % inhibition of IgE binding | Binder |
| --- | --- |
| 21.9% | B1 |
| 36.2% | B2 |
| 29.3% | B3 |
| 29.3% | B4 |

Target: T1, Ara h 2
Assay: competition ELISA on coated Ara h 2; competitor: Patient D serum IgE
Method: as §1

| % inhibition of IgE binding | Binder |
| --- | --- |
| 9.23% | B1 |
| 35.7% | B2 |
| 35.5% | B3 |
| 8.5% | B4 |

Target: T1, Ara h 2
Assay: competition ELISA on coated Ara h 2; competitor: Patient G serum IgE
Method: as §1

| % inhibition of IgE binding | Binder |
| --- | --- |
| 31.8% | B1 |
| 25.7% | B2 |
| 45.3% | B3 |
| 32.8% | B4 |

Target: T1, Ara h 2
Assay: competition ELISA on coated Ara h 2; control: Healthy donor serum
Method: as §1

| % inhibition of IgE binding | Binder |
| --- | --- |
| 0% | B1 |
| 0% | B2 |
| 2.27% | B3 |
| 0% | B4 |

Target: T1, Ara h 2
Assay: competition ELISA on coated Ara h 2; competitor: Patient C serum IgE
Method: as §1

| % inhibition of IgE binding | Binder |
| --- | --- |
| 13.3% | B1 |
| 53.8% | B2 |
| ~55.1% | B3 |
| 21% | B4 |

Target: T1, Ara h 2
Assay: competition ELISA on coated Ara h 2; competitor: Patient F serum IgE
Method: as §1

| % inhibition of IgE binding | Binder |
| --- | --- |
| 30.8% | B1 |
| 45.3% | B2 |
| 36.2% | B3 |
| 23.1% | B4 |

Target: T2, nAra h 1
Assay: ELISA, antigen-coated plate
Method: (§2) EC50 binding of exemplary anti-peanut antibodies of the present invention to peanut allergens or peanut extract, was determined by ELISA. Serial dilutions of MAbs (from 1000 ng/ml down to 0.0169 ng/ml) were incubated for 2 hours with antigen-coated plates (coating overnight at 4° C. or 1 h at 37° C. with 1 μg/ml antigen in PBS, followed by wash out and blocking with 2% BSA in PBS). The plates were subsequently washed and binding of MAbs was detected with anti-human HRP-conjugated Fc-gamma-specific secondary antibody (Jackson ImmunoResearch, West Grove, Pa., USA). Concentrations of MAb resulting in half of maximal binding to respective antigens (EC50, ng/ml) were calculated using GraphPad Prism 5 software on sigmoidal dose-response curves (variable slope, 4 parameters) obtained by plotting the log of the concentration versus OD450 nm measurements; for the results see FIG. 3 and table 2.

| EC50 | Binder |
| --- | --- |
| 5.9 ng/mL | B1 |
| 8.5 ng/mL | B5 |
| 242 ng/mL | B2 |
| 264 ng/mL | B3 |
| 1.9 ng/mL | B6 |
| 8.8 ng/mL | B4 |

Target: T3, nAra h 6
Assay: ELISA, antigen-coated plate
Method: as §2

| EC50 | Binder |
| --- | --- |
| 7 ng/mL | B1 |
| 3.4 ng/mL | B5 |
| 17.2 ng/mL | B2 |
| 22.1 ng/mL | B3 |
| 2.6 ng/mL | B6 |
| 7 ng/mL | B4 |

Target: T4, nBet v 1
Assay: ELISA, antigen-coated plate
Method: as §2

| binding result | Binder |
| --- | --- |
| no binding (tested: 1000 ng/ml) | B1 |
| no binding (tested: 1000 ng/ml) | B5 |
| no binding (tested: 1000 ng/ml) | B2 |
| no binding (tested: 1000 ng/ml) | B3 |
| no binding (tested: 1000 ng/ml) | B6 |
| no binding (tested: 1000 ng/ml) | B4 |

Target: T5, nAra h 2
Assay: ELISA, antigen-coated plate
Method: as §2

| EC50 | Binder |
| --- | --- |
| 6.7 ng/mL | B1 |
| 5.6 ng/mL | B5 |
| 6.8 ng/mL | B2 |
| 5.6 ng/mL | B3 |
| 4.7 ng/mL | B6 |
| 9.2 ng/mL | B4 |

Target: T6, nAra h 3 (peanut)
T6 construct: Bought natural allergen; also called naturally extracted Ara h 3
Assay: ELISA, antigen-coated plate
Method: as §2

| EC50 | Binder |
| --- | --- |
| 2.8 ng/mL | B5 |
| 33.7 ng/mL | B2 |
| 65.2 ng/mL | B3 |
| 1.3 ng/mL | B6 |
| 4.9 ng/mL | B4 |
